Results: the supplement of paper PMC7877785
± gives the uncertainty stated by the source.

Assay: self-splicing fitness, log relative to wild type (ln ratio); higher = more splicing; Tetrahymena group I intron in knt gene, E. coli kanamycin selection, DiMSum; sequences stand for … in CUCUCU…GGAGGGAAAAGUUAUCAGGCAUGCACCUGGUAGCUAGUCUUUAAACCAAUAGAUUGCAUCGGUUUAAAAGGCAAGACCGUCAAAUUGCGGGAAAGGGGUCAACAGCCGUUCAGUACCAAGUCUCAGGGGAAACUUUGAGAUGGCCUUGCAAAGGGUAUGGUAAUAAGCUGACGGACAUGGUCCUAACCACGCAGCCAAGUCCUAAGUCAACAGAUCUUCUGUUGAUAUGGAUGCAGUUCACAGACUAAAUGUCGGUCGGGGAAGAUGUAUUCUUCUCAUAAGAUAUAGUCGGACCUCUCCUUAAUGGGAGCUAGCGGAUGAAGUGAUGCAACACUGGAGCCGCUGGGAACUAAUUUGUAUGCGAAAGUAUAUUGAUUAGUUUUGGAGUACUCGUGGUCG
In short: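 DiMSum derived fitness as the error-weighted combination of fold changes across replicates, kanamycin versus no kanamycin, normalised to wild type. E. coli BL21(DE3) held the library, which randomised all eight P1ex-region intron nucleotides within the knt kanamycin-resistance gene on pET-22b(+). Six replicate transformations grew overnight at 37°C or 30°C on LB agar with or without 25 μg/mL kanamycin, also containing 100 μg/mL carbenicillin, 50 μM IPTG and 0.2% rhamnose, and pooled colonies were amplicon-sequenced on an Illumina HiSeq 2500.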

| Sequence | self-splicing fitness (ln) (37 °C) | self-splicing fitness (ln) (30 °C) |
| --- | --- | --- |
| GGGUAGCAAUAUUACGGAGG | -0.988 ± 0.29 |  |
| GCAUAGCAAUAUUACGUAAG | -0.386 ± 0.12 | -1.63 ± 0.083 |
| UCCGAGCAAUAUUACGCAAA | -2.51 ± 0.31 | -3.59 ± 0.33 |
| GAACAGCAAUAUUACGACGA | 0.265 ± 0.097 | -0.494 ± 0.085 |
| CAUAAGCAAUAUUACGUGUA | -1.77 ± 0.18 | -2.6 ± 0.14 |
| GGCUAGCAAUAUUACGGGUU | -0.879 ± 0.09 | -1.9 ± 0.096 |
| UCCCAGCAAUAUUACGUGCG | -2.93 ± 0.17 | -3.71 ± 0.15 |
| CUGAAGCAAUAUUACGUCUU | -2.64 ± 0.25 | -3.7 ± 0.24 |
| CCCCAGCAAUAUUACGGUAC | -2.66 ± 0.21 | -3.84 ± 0.25 |
| UCAGAGCAAUAUUACGUGGG | -1.96 ± 0.14 | -3.2 ± 0.16 |
| UGCGAGCAAUAUUACGCGGG |  | -2.61 ± 0.3 |
| CCCCAGCAAUAUUACGUUAC | -2.37 ± 0.28 | -4.86 ± 0.46 |
| AUUUAGCAAUAUUACGGAAA | -1.47 ± 0.21 | -2.75 ± 0.29 |
| UUAAAGCAAUAUUACGAGUU | -1.38 ± 0.16 | -2.82 ± 0.18 |
| CUGUAGCAAUAUUACGUUCG | 0.798 ± 0.14 | -0.00257 ± 0.13 |
| UUGAAGCAAUAUUACGACGU | 0.439 ± 0.06 | 0.216 ± 0.046 |
| CCGGAGCAAUAUUACGACUG | -0.428 ± 0.22 | -0.64 ± 0.14 |
| CGCAAGCAAUAUUACGCGUA | -2.55 ± 0.12 | -3.47 ± 0.15 |
| AAUUAGCAAUAUUACGUCCU | 0.561 ± 0.16 | -0.344 ± 0.11 |

| Sequence | self-splicing fitness (ln) (37 °C) | self-splicing fitness (ln) (30 °C) |
| --- | --- | --- |
| UAUCAGCAAUAUUACGUUAG | -1.03 ± 0.094 | -1.22 ± 0.095 |
| CAUCAGCAAUAUUACGACCU | -1.17 ± 0.29 | -2.49 ± 0.31 |
| GCUAAGCAAUAUUACGUCGG | -0.876 ± 0.13 | -1.33 ± 0.099 |
| CUGGAGCAAUAUUACGUUUC | -2.38 ± 0.31 | -3.92 ± 0.31 |
| GGCUAGCAAUAUUACGGGAG | -1.84 ± 0.19 | -2.17 ± 0.14 |
| CGUCAGCAAUAUUACGUGAU | -1.18 ± 0.13 | -2.04 ± 0.1 |
| GACGAGCAAUAUUACGAGUU |  | -3.06 ± 0.34 |
| CGAAAGCAAUAUUACGCGAC | -3.26 ± 0.25 | -2.36 ± 0.19 |
| AUGUAGCAAUAUUACGGUGG | -2.77 ± 0.24 | -3.1 ± 0.27 |
| CGCAAGCAAUAUUACGCAUC | -2.66 ± 0.12 | -2.57 ± 0.12 |
| UGGCAGCAAUAUUACGACUG | -0.812 ± 0.1 | -1.01 ± 0.071 |
| ACGCAGCAAUAUUACGUGGA | -2.37 ± 0.14 | -3.14 ± 0.14 |
| AAUCAGCAAUAUUACGACAG | -0.761 ± 0.1 | -1.31 ± 0.083 |
| AGAAAGCAAUAUUACGGGCA | -0.0746 ± 0.12 | -0.6 ± 0.14 |
| ACAAAGCAAUAUUACGUUAC | -2.42 ± 0.22 | -4.4 ± 0.22 |
| AUCAAGCAAUAUUACGGACC | -1.22 ± 0.086 | -1.47 ± 0.12 |
| AACGAGCAAUAUUACGGUCU | -0.898 ± 0.1 | -2.03 ± 0.093 |
| UACUAGCAAUAUUACGCUUG | -1.64 ± 0.14 | -1.44 ± 0.1 |
| UUCGAGCAAUAUUACGUGAU | -1.35 ± 0.21 | -1.8 ± 0.2 |
